± gives the standard deviation of the averaged measurements.
B1: library; a variant is named by its letters at N, in order (parent)
chain: GCUGUCACCGGUGCUUGGUACGUUAUAUUCAGCCGGUCUGAUGAGUCUNNNNNNAGACGAAACAGC

Assays:
(6R,S)-folinic acid [1] = variants of: B1; assay: normalized RNA/DNA level without ligand (relative to sTRSVctl = 100) (log10 (% of sTRSVctl)); HEK293T overexpressing SLC46A1; higher = less ribozyme self-cleavage, higher mRNA level; conditions: without (6R,S)-folinic acid; ligand present: no
How it was run: (§1)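 Ribozyme switch library plasmids with mCherry reporters (eGFP in certain ligand experiments) went into HEK293T cells at 4 µg per 6-well well. Where ligand was used, it was applied 1 h before transfection, and total RNA was extracted with EDTA 72 h later for reverse transcription, amplification, barcoding and sequencing. RNA level is the RNA-to-DNA read ratio normalized to a spiked-in non-cleaving sequence or to the leading sequences, then scaled and log-transformed. Scaling was ×100 with log10, the leading set comprised 25 sequences, and the cutoff was ≥100 DNA reads.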

(6R,S)-folinic acid [2] = variants of: B1; assay: normalized RNA/DNA level with ligand (relative to sTRSVctl = 100) (log10 (% of sTRSVctl)); HEK293T overexpressing SLC46A1; ligand concentration (+) RNA-Seq: 6 mM; higher = less ribozyme self-cleavage, higher mRNA level; conditions: with (6R,S)-folinic acid; ligand present: yes
How it was run: as §1

Variant	normalized RNA/DNA level without ligand (log10) ((6R,S)-folinic acid [1])	normalized RNA/DNA level with ligand (log10) ((6R,S)-folinic acid [2])
AAUUUA	1.966 ± 0.012	1.99 ± 0.02
AAUUUC	2.031 ± 0.0025	2.01 ± 0.049
UAUAUC	2.027 ± 0.0026	2.01 ± 0.036
UAUAUA	1.944 ± 0.0099	2 ± 0.034
UAUAUU	1.9864 ± 0.0015	2.01 ± 0.042
UAUGAA	1.873 ± 0.016	1.98 ± 0.023
CCAACC	2.027 ± 0.016	1.99 ± 0.042
CCAACG	2.0184 ± 0.002	2.01 ± 0.041
CCAACA	2.033 ± 0.011	2 ± 0.047
CCAACU	2.049 ± 0.0064	2.053 ± 0.02
GCACCC	2.024 ± 0.004	2.012 ± 0.0027
GCACCU	2.028 ± 0.015	2.01 ± 0.035
GCACCA	2.04 ± 0.022	2 ± 0.039
GCACCG	2.055 ± 0.0053	2.05 ± 0.061
UCAAGG	1.96 ± 0.023	2 ± 0.033
UCAAGU	1.984 ± 0.0097	2.02 ± 0.045
CAUACG	1.987 ± 0.0082	2 ± 0.023
CAUACU	2.01 ± 0.018	2.03 ± 0.051
CAUACC	2.027 ± 0.004	2.03 ± 0.029
CAUACA	2.001 ± 0.0091	1.98 ± 0.048

Variant	normalized RNA/DNA level without ligand (log10) ((6R,S)-folinic acid [1])	normalized RNA/DNA level with ligand (log10) ((6R,S)-folinic acid [2])
UAUAGU	1.874 ± 0.014	1.97 ± 0.041
CAUUGU	2.012 ± 0.0069	2.02 ± 0.064
CAUUGA	2.019 ± 0.0027	2.01 ± 0.055
CAUUGC	2.021 ± 0.0021	1.99 ± 0.019
CAUUGG	1.955 ± 0.011	2.01 ± 0.026
AAUCCG	1.969 ± 0.014	2.02 ± 0.055
AAUCCC	2.023 ± 0.003	2 ± 0.043
UCACAG	1.9 ± 0.0082	1.979 ± 0.012
UCACAU	1.986 ± 0.0076	2.02 ± 0.048
UCACAC	2.048 ± 0.015	2.023 ± 0.016
UCACAA	1.982 ± 0.017	1.98 ± 0.025
CAUCGG	1.99 ± 0.024	2.02 ± 0.026
CAUCGU	2.05 ± 0.021	2.02 ± 0.025
CAUCGA	2.045 ± 0.0027	2.06 ± 0.026
AAUUGC	2.006 ± 0.0074	2.01 ± 0.039
GAUGCC	2.014 ± 0.0064	2.023 ± 0.013
GAUGCU	1.992 ± 0.0031	2 ± 0.039
AAUGGC	1.997 ± 0.012	2.029 ± 0.019
AAUGGA	1.925 ± 0.0083	1.99 ± 0.033
GAGUUA	2.008 ± 0.0034	2.03 ± 0.022

Variant	normalized RNA/DNA level without ligand (log10) ((6R,S)-folinic acid [1])	normalized RNA/DNA level with ligand (log10) ((6R,S)-folinic acid [2])
GAGUUU	2 ± 0.02	2.01 ± 0.037
GAGUUC	2.013 ± 0.02	2.025 ± 0.014
GCACAG	1.936 ± 0.0048	2 ± 0.024
GCACAU	1.991 ± 0.0072	2.01 ± 0.025
CCACGC	2.01 ± 0.022	2.01 ± 0.025
CCACGA	2.011 ± 0.0078	2.019 ± 0.009
UCAAAG	1.817 ± 0.0038	1.98 ± 0.032
UCAAAU	1.96 ± 0.017	2.004 ± 0.017
ACAACG	1.991 ± 0.019	2.06 ± 0.021
ACAACC	2.035 ± 0.0087	2.03 ± 0.025
ACAACU	2.014 ± 0.0094	2.03 ± 0.045
GCAAAC	1.974 ± 0.0046	2.02 ± 0.023
GCAAAU	2 ± 0.022	2.03 ± 0.03
GCAAAG	1.95 ± 0.0068	2.018 ± 0.012
GCAAUG	1.98 ± 0.0061	2.033 ± 0.0084
GCAAUU	2.039 ± 0.01	2.04 ± 0.042
GCAAUC	2.03 ± 0.02	2.03 ± 0.038
GCAAUA	2.014 ± 0.013	2.03 ± 0.026

Source: the supplement of paper PMC6757056
